From patent publication US20180282407A1 (FUKUSHIMA MEDICAL UNIVERSITY, published 2018)
Like-named read-outs stand apart in the source and are kept apart here. Ends that are not written are not given here.

T1: Ocln3 (human)
T1 construct: also called Ocln3 peptide
T1 peptide: QFYTPAATG

T2: Ocln1 (human)
T2 construct: has a cysteine and can form a dimer, so the ELISA was also run under acidic conditions (2 N HCl); also called Ocln1 peptide
T2 peptide: ALCNQFYTPA

T3: antigenic occludin peptide of SEQ ID NO: 7 (positions 214 to 230 of human occludin, second extracellular … (human, also: KLH carrier linked at N-terminus for immunisation, ELISA form not given here))
T3 construct: also called the antigen; antigenic peptide
T3 peptide: ALCNQFYTPAATGLYVD


What was measured:
[1] = biological target: human CD81 protein (human) (UniProt P60033); assay: cell-based or functional assay
[2] = biological target: human CD81 protein (human) (UniProt P60033); assay: cell-based or functional assay; remark: listed apart in the source
Ocln3 = biological target: T1, Ocln3; assay: ELISA on coated peptide
Source text: (§1) Accordingly, Ocln1 consisting of the amino acid sequence represented by SEQ ID NO: 6 ([…]) by the truncation of 7 residues from the […] side of the amino acid sequence represented by SEQ ID NO: 7, Ocln2 consisting of the amino acid sequence represented by SEQ ID NO: 11 ([…]) by the truncation of 7 residues from the 5′-terminal side thereof, and Ocln3 consisting of the amino acid sequence represented by SEQ ID NO: 12 ([…]) by the truncation of 3 to 4 residues from both terminal sides were prepared as antigenic peptides (FIG. 11A). KLH-Ocln peptide (1 μg/well) was used as a positive control antigen.
(§2) Each antigenic peptide was added at 25, 50, 100, and 500 μg/well to an antigen sensitization microplate (Nunc/Thermo Fisher Scientific Inc.) and incubated overnight at room temperature. After blocking with 5% BSA/PBS/0.09% NaN₃ at 37° C. for 2 hours, the 67-2 antibody or normal mouse IgG was added thereto and incubated at room temperature for 1 hour. Ocln1 has a cysteine residue in the sequence and is therefore capable of forming a dimer. Therefore, the analysis was also conducted under acidic conditions (2 N HCl). […] The absorbance at 450 nm/655 nm was measured using a microplate reader. […]

Ocln1 = biological target: T2, Ocln1; assay: ELISA on coated peptide, acidic conditions (2 N HCl), HRP anti-mouse IgG
Source text: as §1, §2

[3] = biological target: T3, antigenic occludin peptide of SEQ ID …; assay: ELISA of subclone culture supernatants on the antigen

Sequence of human CD81 protein (human) (P60033 whole entry): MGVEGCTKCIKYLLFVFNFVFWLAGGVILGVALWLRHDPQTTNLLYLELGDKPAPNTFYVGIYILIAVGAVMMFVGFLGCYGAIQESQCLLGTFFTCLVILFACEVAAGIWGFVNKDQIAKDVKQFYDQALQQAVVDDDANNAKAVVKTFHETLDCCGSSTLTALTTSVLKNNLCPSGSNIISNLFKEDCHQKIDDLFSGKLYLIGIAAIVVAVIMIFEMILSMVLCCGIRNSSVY

Row | Molecule | infection inhibition rate, HCVpv 9-3, Huh7.5.1 monolayer culture (luciferase) [1] [%] | infection inhibition rate, HCVpv con1, Huh7.5.1 monolayer culture (luciferase) [1] [%] | infection inhibition rate, HCVpv H77, Huh7.5.1 monolayer culture (luciferase) [2] [%] | infection inhibition rate, HCVpv con1, Huh7.5.1 monolayer culture (luciferase) [2] [%] | binding result (Ocln3) | binding result (Ocln1) | binding result [3]
1 | anti-human CD81 antibody (JS-81 clone; BD Pharmingen) | 98 | 99 | 99.1 | 99.8 | – | – | –
2 | mouse anti-human occludin monoclonal antibody clone 67-2 (antibody, IgG1, V domains shown, Mouse antibody from hybridoma C67-2; also called 67-2 antibody; anti-occludin antibody 67-2) VH: EVQLQQSGPELVKPGASVKISCKASGYTFTDYIMDWVKQSHGKSLEWIGYIYPNNGGTGYNQKFKSKATLTIDKSSSTAYMELHSLTSEDSAVYYCAREDGDYGYFDVWGAGTTVTVSS VL: QAVVTQESALTTSPGGTVILTCRSSTGAVTTSNYANWVQEKPDHLFTGLIGGTSNRAPGVPVRFSGSLIGDKAALTITGAQTEDDAMYFCALWYSTHYVFGGGTKVTVLG | – | – | – | – | no binding | binds | binds
